Assay results: paper PMC6366758, “Structure basis of neutralization by a novel site II/IV antibody against respiratory syncytial virus fusion protein” (PLoS ONE, 2019)

T1: Antigenic site II synthetic peptide of RSV F (254-278) (Human respiratory syncytial virus A, …)
T1 construct: RSV F antigenic site II, residues 254-278; also called Site II peptide; full-length peptide; source: synthetic peptide (Peptide 2.0)
T1 chain: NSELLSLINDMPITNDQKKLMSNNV

T2: Antigenic site II peptide 260-278 (Human respiratory syncytial virus A (A2 …))
T2 construct: RSV F antigenic site II, residues 260-278; source: synthetic peptide (Peptide 2.0)
T2 chain: LINDMPITNDQKKLMSNNV

T3: Antigenic site II peptide 259-273 (Human respiratory syncytial virus A (A2 …))
T3 construct: RSV F antigenic site II, residues 259-273; source: synthetic peptide (Peptide 2.0)
T3 chain: SLINDMPITNDQKKL

T4: Antigenic site II peptide 254-268 (Human respiratory syncytial virus A (A2 …))
T4 construct: RSV F antigenic site II, residues 254-268; source: synthetic peptide (Peptide 2.0)
T4 chain: NSELLSLINDMPITN

T5: Antigenic site II peptide 254-273 (human respiratory syncytial virus)
T5 construct: RSV F antigenic site II, residues 254-273; source: synthetic peptide (Peptide 2.0)
T5 chain: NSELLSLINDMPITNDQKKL

T6: Antigenic site II peptide 264-278 (Human respiratory syncytial virus A (A2 …))
T6 construct: RSV F antigenic site II, residues 264-278; source: synthetic peptide (Peptide 2.0)
T6 chain: MPITNDQKKLMSNNV

B1: R4.C6 monoclonal antibody (antibody, V domains shown)
VH: EVQLQQSGPELVKPGASVKISCKASGYAFSNSWMSWVKQRPGKGLEWIGRLFPADGDITYNGHFKDKAALTADKSSNTAYIQLSSLTSEDSAVYFCARMDNSEVFWGQGTLVTVSA
VL: DILLTQSQKFMSTSVGDRVSITCKASQNVRTGVSWYQRKPGQSPKALIYLASNRHTGVPDRFTGRGSGTDFTLTISEVQSEDLADYFCLQHWTVPYTFGGGTKLEIK
notes: mouse IgG2a; mouse kappa; Only the Fv was modelled in 6CXC; also called mAb R4.C6; source: mouse hybridoma (BALB/c immunized with RSV F NP), serum free medium, purified (protein-G)
B2: Motavizumab (antibody, V domains shown)
VH: QVTLRESGPALVKPTQTLTLTCTFSGFSLSTAGMSVGWIRQPPGKALEWLADIWWDDKKHYNPSLKDRLTISKDTSKNQVVLKVTNMDPADTATYYCARDMIFNFYFDVWGQGTTVTVSS
VL: DIQMTQSPSTLSASVGDRVTITCSASSRVGYMHWYQQKPGKAPKLLIYDTSKLASGVPSRFSGSGSGTEFTLTISSLQPDDFATYYCFQGSGYPFTFGGGTKVEIK
notes: IgG1; kappa; also called motatvizumab; source: obtained from National Institute of Standards and Technology

Columns and labels:
Details in all cases: both partners purified
Pre-fusion F = biological target: T7, Pre-fusion F (Human respiratory syncytial virus A, …, UniProt P03420, stabilised); assay: SPR; Biacore T200; mAb (2 ug/mL) captured on protein A or protein G amine-coupled to a CM5 chip; RSV F injected at 3.3, 10, 30, 90 nM, 180 s association, 600 s dissociation; 1:1 fit; apparent KD = kd/ka
T7 construct: Fusion (F) glycoprotein F0 of human RSV/A2, residues 26-574, intact TM/CT; mutant furin site I, p27 region deleted, fusion peptide deletion, three stabilizing substitutions; Expressed with a gp64 signal peptide; also called pre-fusion RSV F; pre-fusion trimer; source: Sf9, baculovirus-infected, extracted from cell pellets, purified

Post-fusion F = biological target: T8, Post-fusion F (Human respiratory syncytial virus A, …, stabilised); assay: as above
T8 construct: Fusion (F) glycoprotein of human RSV/A2 from residue 26, TM/CT domains replaced with a C-terminal 6-histidine tag; Expressed with a gp64 signal peptide; also called post-fusion RSV F; post-fusion trimer; source: Sf9, baculovirus-infected, culture supernatant, purified (IMAC, ion exchange)

[1] = biological target: T1, Antigenic site II synthetic peptide of …; assay: SPR; Biacore T200; mAb (2 ug/mL, 90 s) captured on protein A or protein G on a CM5 chip; site II peptides injected at 100, 200, 400, 800 nM, 180 s, then 600 s buffer; 1:1 fit; apparent KD = kd/ka
[2] = biological target: T2, Antigenic site II peptide 260-278; assay: as above
[3] = biological target: T3, Antigenic site II peptide 259-273; assay: as above
[4] = biological target: T4, Antigenic site II peptide 254-268; assay: as above
[5] = biological target: T5, Antigenic site II peptide 254-273; assay: as above
[6] = biological target: T6, Antigenic site II peptide 264-278; assay: as above

| Binder | binding result (Pre-fusion F) | Kd (Post-fusion F) [nM] | Kd [1] [nM] | Kd [2] [nM] | binding result [3] | binding result [4] | binding result [5] | Kd [6] [nM] |
| --- | --- | --- | --- | --- | --- | --- | --- | --- |
| B1 | binds | 0.34 | 12.5 | 84.2 | no binding (tested: 800 nM) | no binding (tested: 800 nM) | no binding (tested: 800 nM) | 110 |
| B2 | binds |  | 26.7 |  |  |  |  |  |
